# Measured values from patent US7164008B2, “Isolated complexes of endotoxin and MD-2” (priority 2003, dated 2007).
# B1: P6: outer membrane protein P6 from non-typeable Haemophilus influenzae (protein, UniProt P10324 20-153, looked up)
# Peptidoglycan-associated …: CSSSNNDAAGNGAAQTFGGYSVADLQQRYNTVYFGFDKYDITGEYVQILDAHAAYLNATPAAKVLVEGNTDERGTPEYNIALGQRRADAVKGYLAGKGVDAGKLGTVSYGEEKPAVLGHDEAAYSKNRRAVLAY
# B2: C95Y MD-2 (protein)
# chain: QKQYWVCNSSDASISYTYCDKMQYPISINVNPCIELKRSKGLLHIFYIPRRDLKQLYFNLYITVNTMNLPKRKEVIYRGSDDDYSFCRALKGETVNTTISFSFKGIKFSKGKYKCVVEAISGSPEEMLFCLEFVILHQPNSNHHHHHH
# Columns and labels:
# human airway epithelia [1] = assay: Endotoxin responsiveness of primary human airway epithelia (HBD-2 mRNA real time PCR, NF-κB-luciferase); assay type: cell-based; conditions: IL-1β 100 ng/ml, 24 hr, real time PCR
# Description: FIG. 6 depicts endotoxin responsiveness of well-differentiated primary cultures of human airway epithelia. Polarized epithelia were treated with NTHi LOS (100 ng/ml), sCD14 (100 ng/ml) and LBP (250 ng/ml) by apical application in a 50 μl volume. Twenty-four hours later, epithelia were harvested and analyzed for HBD-2 mRNA expression by real time PCR. As depicted in FIG. 6A, apical stimulation of airway epithelia with NTHi LOS induced little change in HBD-2 MRNA expression (2 epithelia/trial, n=3 different donors, * indicates p<0.05). In contrast, IL-1β markedly induces HBD-2 mRNA. FIG. 6B depicts the polarity of epithelial responses to IL-1β and NTHi LOS. […]
# FIG. 9 depicts the effects of MD-2 complementation on endotoxin responsiveness in human airway epithelia. […] Fold increase in HBD-2 mRNA expression were quantified by real time PCR. […] NF-κB-luciferase activity was measured 24 hr following endotoxin treatment (n=5 epithelia/condition, * indicates p<0.05). […] 24 hr after endotoxin treatment, HBD-2 expression was quantified by real time PCR. […]
# Well differentiated human airway epithelia were treated with N. meningitidis LOS-sCD14 (5 ng LOS/ml), with or without the addition of cell culture supernatants containing rMD-2. […] HBD-2 expression was quantified by real time PCR. […]
# Real-time PCR was employed to detect human β-defensin-2 and MD-2 and to quantify changes in expression. […]
# human airway epithelia [2] = assay: MD-2 mRNA expression in human airway epithelia after stimuli (real time PCR); assay type: cell-based; conditions: 18–24 hr stimulation
# Description: Fold increase in MD-2 mRNA expression was quantified using real time PCR. FIG. 10 represents the results from three independent experiments on three different epithelial preparations. * indicates p<0.05.
# Real-time PCR was employed to detect human β-defensin-2 and MD-2 and to quantify changes in expression. Real-time quantitative PCR was performed using a sequence detector (ABI PRISM 7700, Applied Biosystems, Foster City, Calif.) and Taqman technology (Roche Molecular Diagnostic Systems) following the manufacturer's protocols (Bustin, 2000). The primers and probes were designed using the Primer Express program (Applied Biosystems). For MD-2, the primers were-forward5′-[…]-3′ (SEQ ID NO:11), reverse 5′-GCATTTCTTCTGGGCTCCC-3′ (SEQ ID NO:12), and probe 5′-[…]-3′ (SEQ ID NO:13). For HBD-2, the forward primer was-5′-[…]-3′ (SEQ ID NO:14), the reverse primer-5′-[…]-3′ (SEQ ID NO:15), and the probe was-5′-[…]-3′ (SEQ ID NO:16). Both probes contain a fluorescent reporter (6-Carboxyfluorescein [FAM]) at the 5′ end and a fluorescent quencher (6-Carboxytetramethylrhodamine [TAMRA]) at the 3′ end. As an internal control for normalization, human GAPDH real-time quantitative PCR was conducted in every reaction. The primers and probes were purchased from Roche Molecular Diagnostic Systems. The PCR fragments were amplified for 40 cycles (15 sec at 95° C. and 1 min at 60° C.). […]
# MD-2 = assay: Formation of [^14C]-LOS-MD-2 complex monitored by gel filtration chromatography; assay type: binding, human; conditions: 30 min, 37° C., Sephacryl S100
# Description: In FIG. 2, a bioactive complex (Mr˜25,000) containing MD-2 and [^14C]-LOS is formed by incubation of [^14C]-LOS-sCD14 with wt, but not C95Y, MD-2. In FIG. 2A, dialyzed control insect cell medium (◯) or medium containing wt (♦) or C95Y ( ? ) MD-2 was incubated for 30 min, 37° C. with (1:1 vol/vol) [^14C]-LOS-sCD14 in HBSS+, 10 mM HEPES and chromatographed on Sephacryl S100. Column fractions were analyzed for [^14C]-LOS. Identical results were obtained in analytical (5 ng [^14C]-LOS/ml+200 μl culture medium) or more preparative runs (reagents concentrated 20×). […] Cell activation was measured by IL-8 accumulation. […]
# Purified [^14C]-LOSagg or [^14C]-LOS-sCD14 (3 ng LOS/ml)+/−indicated proteins (30 ng/ml LBP, 250 ng/ml sCD14, 60 μl culture medium) were incubated at 37° C. for 30 min. After this incubation, samples were analyzed by gel filtration chromatography to monitor formation of [^14C]-LOS-MD-2 and by incubation with HEK/TLR4 cells to measure cell activation.
# Columns of Sephacryl HR S200 (1.6 cm×30 cm) or S100 (1.0 cm×60 cm) were pre-equilibrated in 10 mM HEPES, HBSS^++/−0.1% HSA. […] Aliquots of the collected fractions were analyzed by liquid scintillation spectroscopy using a Beckman LS liquid scintillation counter to detect [^14C]-LOS. […]
# TLR4 = target: T1, TLR4 (Homo sapiens, UniProt O00206+Q9Y6Y9); assay: HEK cell activation assay: extracellular IL-8 by ELISA; assay type: cell-based
# T1 construct: host or cells: HEK293 stably transfected with TLR4 (HEK/TLR4)
# T1 sequence (O00206 24-839): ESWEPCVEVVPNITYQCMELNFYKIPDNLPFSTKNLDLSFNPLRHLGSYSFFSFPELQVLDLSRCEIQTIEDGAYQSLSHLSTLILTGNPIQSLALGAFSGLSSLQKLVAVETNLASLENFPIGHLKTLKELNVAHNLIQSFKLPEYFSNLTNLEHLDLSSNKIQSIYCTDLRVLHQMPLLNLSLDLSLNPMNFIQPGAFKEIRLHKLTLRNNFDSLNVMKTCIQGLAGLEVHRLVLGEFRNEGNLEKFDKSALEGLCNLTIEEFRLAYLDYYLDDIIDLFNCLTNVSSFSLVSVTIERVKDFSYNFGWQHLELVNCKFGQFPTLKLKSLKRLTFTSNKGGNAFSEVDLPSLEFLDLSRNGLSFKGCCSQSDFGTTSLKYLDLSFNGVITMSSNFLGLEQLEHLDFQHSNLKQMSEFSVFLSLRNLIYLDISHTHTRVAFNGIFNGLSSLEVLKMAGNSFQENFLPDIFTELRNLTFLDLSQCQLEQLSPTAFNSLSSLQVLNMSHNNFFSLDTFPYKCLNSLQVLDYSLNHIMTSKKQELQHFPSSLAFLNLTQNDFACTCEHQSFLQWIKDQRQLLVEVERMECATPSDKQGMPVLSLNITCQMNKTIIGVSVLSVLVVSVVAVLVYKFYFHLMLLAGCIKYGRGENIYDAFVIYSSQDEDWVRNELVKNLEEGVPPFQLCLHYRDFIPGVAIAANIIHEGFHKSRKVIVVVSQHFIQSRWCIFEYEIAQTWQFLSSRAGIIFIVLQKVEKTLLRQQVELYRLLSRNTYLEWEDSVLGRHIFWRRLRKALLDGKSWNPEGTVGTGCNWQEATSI
# T1 sequence (Q9Y6Y9 19-160): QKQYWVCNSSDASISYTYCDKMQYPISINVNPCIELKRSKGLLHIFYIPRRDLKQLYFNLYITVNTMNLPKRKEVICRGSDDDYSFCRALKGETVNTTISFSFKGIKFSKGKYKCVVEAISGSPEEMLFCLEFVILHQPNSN
# From the text: Conditioned insect cell culture medium containing soluble, polyhistidine-tagged recombinant wild-type (wt) or C95Y mutant MD-2 were generated according to the method of Viriyakosol et al. (2001). A human embryonic kidney cell line (HEK293) that stably expresses TLR4 (HEK/TLR4), but lacks both CD14 and MD-2 (Yang et al., 2000), was used to evaluate the effect of MD-2 on the ability of lipooligosaccharide (LOS) to interact with TLR4 and promote activation.
# FIG. 1 depicts the expression and bioactivity of recombinant MD-2-His6. FIGS. 1A and 1B depict SDS-PAGE immunoblots of control culture medium (FIG. 1A, lane 1) or medium from HiFive cells infected with recombinant baculovirus encoding wt (FIG. 1A, lane 2; FIG. 1B, lanes 1–3) or C95Y MD-2 (FIG. 1B, lane 4). MD-2 was detected using anti-(His)4 antibody. All samples represent 1 μl of culture medium except B, lanes 2 and 3, which represent 0.3 and 0.1 μl and A, lane 3, which represents molecular weight markers. In FIG. 1C, HEK/TLR4 cells were incubated in HEPES-buffered HBSS+/0.1% albumin with [^14C]-LOSagg (3 ng/ml)+/−LBP (30 ng/ml) and/or (60 μl) culture medium containing wt MD-2 (MD-2) (open bars); LOSagg+LBP and sCD14 (250 ng/ml)+/−wt (closed bars) or C95Y “MD-2” (striped bars), or [^14C]-LOS-sCD14 (2 ng LOS/ml)+/−wt or C95Y “MD-2” (closed bars). After overnight incubation, extracellular IL-8 was assayed by ELISA. In FIG. 1D, HEK/TLR4 cells were incubated with increasing amounts of wt (▪) or C95Y (◯) MD-2+[^14C]-LOS-sCD14 (2 ng/ml) and cell activation measured. Results shown are from one experiment (duplicate samples) representative of four independent experiments.
# In FIG. 2, a bioactive complex (Mr˜25,000) containing MD-2 and [^14C]-LOS is formed by incubation of [^14C]-LOS-sCD14 with wt, but not C95Y, MD-2. In FIG. 2A, dialyzed control insect cell medium (◯) or medium containing wt (♦) or C95Y ( ? ) MD-2 was incubated for 30 min, 37° C. with (1:1 vol/vol) [^14C]-LOS-sCD14 in HBSS+, 10 mM HEPES and chromatographed on Sephacryl S100. Column fractions were analyzed for [^14C]-LOS. Identical results were obtained in analytical (5 ng [^14C]-LOS/ml+200 μl culture medium) or more preparative runs (reagents concentrated 20×). In FIG. 2B, peak fractions (Mr˜25,000) from treatment of [^14C]-LOS-sCD14 with wt MD-2 (FIG. 2A) were re-chromatographed on S100 in HBSS+, 10 mM HEPES without HSA; recovery of [^14C]-LOS was >80%. In FIG. 2C, HEK (□) or HEK/TLR4 (▪) were incubated overnight with the indicated amounts of LOS added as purified Mr˜25,000 (LOS-MD-2) complex. Cell activation was measured by IL-8 accumulation. Results shown correspond to one experiment, in duplicate, representative of three similar experiments. FIGS. 2D and 2E depict adsorption and elution of bioactive Mr˜25,000 complex to HisBind resin. Peak fractions of the purified complex (FIG. 2B; 10 ng [^14C]-LOS) were dialyzed against PBS and incubated with HisBind resin (0.125 ml) for 1 hr at 25° C. and processed as described in Methods. Non-adsorbed (Flow-thru) and adsorbed material eluted with 200 mM imidazole were precipitated with trichloroacetic acid to concentrate sample for SDS-PAGE/immunoblot analysis. […]
# Purified [^14C]-LOSagg or [^14C]-LOS-sCD14 (3 ng LOS/ml)+/−indicated proteins (30 ng/ml LBP, 250 ng/ml sCD14, 60 μl culture medium) were incubated at 37° C. for 30 min. After this incubation, samples were analyzed by gel filtration chromatography to monitor formation of [^14C]-LOS-MD-2 and by incubation with HEK/TLR4 cells to measure cell activation. […]
molecule,measurement,setting,value
"IL-1β: human recombinant IL-1β, positive control [reference compound]",increase in HBD-2 expression,human airway epithelia [1],"> 10,000 fold"
"CCCCCCCCCCCCCC(=O)O[C@@H]1[C@@H](C)[C@@]2(O)[C@@H](C=C(CO)C[C@]3(O)C(=O)C(C)=C[C@@H]23)[C@@H]2C(C)(C)[C@]12OC(C)=O [phorbol myristate acetate, reference compound]",steady state MD-2 mRNA levels,human airway epithelia [2],induced
B1,steady state MD-2 mRNA levels,human airway epithelia [2],marked increases
B2,"reaction with [^14C]-LOS-sCD14 to generate new Mr˜25,000 [^14C]-LOS-containing complex",MD-2,no change
same,activation of HEK/TLR4 cells by LOS-sCD14 (or LOSagg+LBP+sCD14) on addition of medium containing MD-2,"TLR4; IL-8 release, LOS-sCD14 2 ng LOS/ml",not seen
same,inhibition of activation of HEK/TLR4 by [^14C]-LOS-MD-2 by added MD-2,"TLR4; [^14C]-LOS-MD-2 0.3 ng/ml, increasing amounts of conditioned medium",intermediate inhibitory effect
